Measured values published in paper PMC8580825, “Scaffolding protein CcmM directs multiprotein phase separation in β-carboxysome biogenesis” (Nature Structural & Molecular Biology, 2021).
Where a chain is given by its changes, count along the chain named.

T1: M58(D172K) (Synechococcus elongatus PCC 7942, UniProt Q03513 1-539, D172K)
T1 construct: CcmM (M58), Synechococcus elongatus PCC 7942, point mutant in the γCAL domain (head-to-head salt bridge); also called SeM58-D172K; M58oxD172K; source: E. coli BL21 (DE3), purified as wild-type M58; not shown: His6-ubiquitin, N-terminal, cleaved
T1 sequence (looked up): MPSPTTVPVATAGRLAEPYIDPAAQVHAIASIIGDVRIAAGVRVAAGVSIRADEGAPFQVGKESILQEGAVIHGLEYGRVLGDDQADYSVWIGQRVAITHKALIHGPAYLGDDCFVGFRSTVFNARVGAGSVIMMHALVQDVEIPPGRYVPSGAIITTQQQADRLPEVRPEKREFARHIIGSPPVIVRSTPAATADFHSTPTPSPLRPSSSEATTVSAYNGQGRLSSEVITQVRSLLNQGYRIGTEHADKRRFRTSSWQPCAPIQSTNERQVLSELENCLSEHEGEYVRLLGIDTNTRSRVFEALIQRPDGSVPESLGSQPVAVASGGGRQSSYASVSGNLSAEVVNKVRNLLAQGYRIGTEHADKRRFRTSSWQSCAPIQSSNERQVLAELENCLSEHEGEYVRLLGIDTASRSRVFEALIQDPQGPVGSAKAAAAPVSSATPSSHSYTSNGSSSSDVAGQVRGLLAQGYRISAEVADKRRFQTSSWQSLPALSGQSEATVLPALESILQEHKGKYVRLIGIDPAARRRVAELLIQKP

T2: M58(R164D) (Synechococcus elongatus PCC 7942, UniProt Q03513 1-539, R164D)
T2 construct: CcmM (M58), Synechococcus elongatus PCC 7942, point mutant in the γCAL domain (head-to-head salt bridge); also called SeM58-R164D; M58oxR164D; source: E. coli BL21 (DE3), purified as wild-type M58; not shown: His6-ubiquitin, N-terminal, cleaved
T2 sequence (looked up): T1 sequence (looked up) with R164D, K172D

T3: RbcL8 core complex of Rubisco (Synechococcus elongatus PCC 7942)
T3 chain: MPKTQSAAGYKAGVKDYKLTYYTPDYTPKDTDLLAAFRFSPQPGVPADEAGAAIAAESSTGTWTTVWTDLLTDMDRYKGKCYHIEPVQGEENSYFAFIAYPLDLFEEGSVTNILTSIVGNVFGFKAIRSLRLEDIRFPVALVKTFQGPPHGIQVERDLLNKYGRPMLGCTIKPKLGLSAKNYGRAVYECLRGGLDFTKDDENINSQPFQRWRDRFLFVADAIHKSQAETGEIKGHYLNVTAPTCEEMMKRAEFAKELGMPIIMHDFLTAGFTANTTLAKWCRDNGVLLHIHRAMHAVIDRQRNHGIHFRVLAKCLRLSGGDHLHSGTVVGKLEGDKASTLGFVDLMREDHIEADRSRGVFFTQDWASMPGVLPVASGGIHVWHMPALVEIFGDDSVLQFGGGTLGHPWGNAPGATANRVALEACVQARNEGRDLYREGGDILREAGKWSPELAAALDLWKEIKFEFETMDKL

B1: γCAL-2S (domain or fragment, Synechococcus elongatus PCC 7942, UniProt Q03513 1-429, looked up)
chain: MPSPTTVPVATAGRLAEPYIDPAAQVHAIASIIGDVRIAAGVRVAAGVSIRADEGAPFQVGKESILQEGAVIHGLEYGRVLGDDQADYSVWIGQRVAITHKALIHGPAYLGDDCFVGFRSTVFNARVGAGSVIMMHALVQDVEIPPGRYVPSGAIITTQQQADRLPEVRPEDREFARHIIGSPPVIVRSTPAATADFHSTPTPSPLRPSSSEATTVSAYNGQGRLSSEVITQVRSLLNQGYRIGTEHADKRRFRTSSWQPCAPIQSTNERQVLSELENCLSEHEGEYVRLLGIDTNTRSRVFEALIQRPDGSVPESLGSQPVAVASGGGRQSSYASVSGNLSAEVVNKVRNLLAQGYRIGTEHADKRRFRTSSWQSCAPIQSSNERQVLAELENCLSEHEGEYVRLLGIDTASRSRVFEALIQDPQGPV
notes: C-terminal truncation of CcmM (M58), Synechococcus elongatus PCC 7942, with the γCAL domain and two SSUL modules, residues 1-429; also called SeγCAL-2S(1–429); γCAL-2Sox; source: E. coli BL21 (DE3), purified as M58; not shown: His6-ubiquitin, N-terminal, cleaved
B2: β-class carbonic anhydrase CcaA of Synechococcus elongatus PCC 7942 (enzyme, UniProt P27134 1-272, looked up)
chain: MRKLIEGLRHFRTSYYPSHRDLFEQFAKGQHPRVLFITCSDSRIDPNLITQSGMGELFVIRNAGNLIPPFGAANGGEGASIEYAIAALNIEHVVVCGHSHCGAMKGLLKLNQLQEDMPLVYDWLQHAQATRRLVLDNYSGYETDDLVEILVAENVLTQIENLKTYPIVRSRLFQGKLQIFGWIYEVESGEVLQISRTSSDDTGIDECPVRLPGSQEKAILGRCVVPLTEEVAVAPPEPEPVIAAVAAPPANYSSRGWLAPEQQQRIYRGNAS
notes: CcaA (~30 kDa), Synechococcus elongatus PCC 7942; ccaA gene amplified from genomic DNA; 272 residues (last 17 are 256-272); For microscopy labelled at the N terminus with Alexa405 and mixed 1:10 with unlabelled protein; also called CcaAAF4; source: E. coli BL21 (DE3), purified (Ni-NTA, H6Ub cleaved, SEC); not shown: His6-ubiquitin, N-terminal, cleaved
B3: CcmM full-length protein M58 of Synechococcus elongatus PCC 7942 (natural protein, UniProt Q03513 1-539, looked up)
chain: T1 sequence (looked up) with K172D
notes: CcmM (M58, ~58 kDa), Synechococcus elongatus PCC 7942; full-length ccmM gene amplified from genomic DNA; SeCcmM (1-539); Used reduced (M58red, 5 mM DTT) or oxidized (M58ox, 2 mM H2O2; disulfides in SSUL modules); For microscopy labelled at the N terminus with Alexa532 and mixed 1:10 with unlabelled protein; also called SeM58; M58red; source: E. coli BL21 (DE3), purified (Ni-NTA, H6Ub cleaved with …)
B4: Rubisco holoenzyme (RbcL8S8) of Synechococcus elongatus PCC 7942 (complex)
chain 1: T3 chain
chain 2: MSMKTLPKERRFETFSYLPPLSDRQIAAQIEYMIEQGFHPLIEFNEHSNPEEFYWTMWKLPLFDCKSPQQVLDEVRECRSEYGDCYIRVAGFDNIKQCQTVSFIVHRPGRY

Legend:
[1] = molecular target: the molecule itself; assay: turbidity assay; one protein alone (homodemixing: association of trimers into a homocondensate); 50 mM KCl; M58ox 0.5–3.0 μM, M58red 5 and 6 μM; truncations and point mutants oxidized at 3 μM; M58-C4S and CCTRIM35 at 5 μM; 25 °C
[2] = molecular target: B3; assay: turbidity assay; absorbance at 340 nm, 25 °C, 50 mM Tris-HCl pH 8.0, 10 mM Mg(OAc)2; 0.5 μM CcaA or its mutants (0–1.25 μM for the apparent KD) with 0.5 μM M58 or its truncations and mutants, 0.75 μM γCAL198 or 2.25 μM M35; 100 mM KCl (50–400 mM in the salt series); reducing (5 mM DTT) or oxidizing; apparent; a protein alone: association of its oligomers into condensates; details: both partners purified
[3] = molecular target: T1, M58(D172K); assay: as above; details: both partners purified
[4] = molecular target: T2, M58(R164D); assay: as above; details: both partners purified
[5] = molecular target: β-class carbonic anhydrase CcaA of Synechococcus elongatus PCC 7942 (Synechococcus elongatus PCC 7942) (UniProt P27134); assay: SEC-MALS; 2 mg/ml protein; 50 mM Tris-HCl pH 8.0/150 mM KCl or 50 mM Tris-HCl pH 8.0/500 mM KCl/5 mM DTT; 25 °C; oligomeric state in solution
[6] = molecular target: T3, RbcL8 core complex of Rubisco; assay: turbidity assay; 0.25 μM RbcL8 with M58red or M58ox at varied concentrations; M35red or M35ox with RbcL8 as controls; 50–200 mM KCl; details: both partners purified
[7] = molecular target: CcmM full-length protein M58 of Synechococcus elongatus PCC 7942 (Synechococcus elongatus PCC 7942) (UniProt Q03513); assay: SEC-MALS; 2 mg/ml protein; 50 mM Tris-HCl pH 8.0/150 mM KCl or 50 mM Tris-HCl pH 8.0/500 mM KCl/5 mM DTT; 25 °C; oligomeric state in solution
[8] = molecular target: B3; assay: turbidity assay; 0.25 μM Rubisco (RbcL8S8) with increasing M58red, M58ox, CCTRIM35red or CCTRIM35ox at 50 mM KCl; or with 0.25 μM M58, 0.25 μM CCTRIM35 or 0.75 μM M35 at 50 and 100 mM KCl; reducing or oxidizing; apparent; details: both partners purified

Binder: B1
- binding result [1]: binds

Binder: B2
- Kd [2]: ~200 nM
- binding result [3]: binds
- binding result [4]: binds
- stoichiometry N [5]: 4

Binder: B3
- fold lower affinity than for the Rubisco holoenzyme [6]: ~4 fold
- stoichiometry N [7]: 3

Binder: B4
- Kd [8]: ~70 nM
